From patent publication US20230097015A1 (SEOUL NATIONAL UNIVERSITY R AND DB FOUNDATION, published 2023)

Experiments:
4CL-MlnB COM^D = target: T1, 4CL-MlnB COM^D (Bacillus amyloliquefaciens, UniProt Q42524 1-561); experiment: analytical SEC-FPLC of a 1:1 mixture and native PAGE
T1 construct: Unlabelled protein as used in SEC/native PAGE and in the two-step naringenin reaction; also called 4-coumarate-CoA ligase fused to MlnB COM donor domain; not shown: N-terminal His-tag from pET15b vector
T1 sequence: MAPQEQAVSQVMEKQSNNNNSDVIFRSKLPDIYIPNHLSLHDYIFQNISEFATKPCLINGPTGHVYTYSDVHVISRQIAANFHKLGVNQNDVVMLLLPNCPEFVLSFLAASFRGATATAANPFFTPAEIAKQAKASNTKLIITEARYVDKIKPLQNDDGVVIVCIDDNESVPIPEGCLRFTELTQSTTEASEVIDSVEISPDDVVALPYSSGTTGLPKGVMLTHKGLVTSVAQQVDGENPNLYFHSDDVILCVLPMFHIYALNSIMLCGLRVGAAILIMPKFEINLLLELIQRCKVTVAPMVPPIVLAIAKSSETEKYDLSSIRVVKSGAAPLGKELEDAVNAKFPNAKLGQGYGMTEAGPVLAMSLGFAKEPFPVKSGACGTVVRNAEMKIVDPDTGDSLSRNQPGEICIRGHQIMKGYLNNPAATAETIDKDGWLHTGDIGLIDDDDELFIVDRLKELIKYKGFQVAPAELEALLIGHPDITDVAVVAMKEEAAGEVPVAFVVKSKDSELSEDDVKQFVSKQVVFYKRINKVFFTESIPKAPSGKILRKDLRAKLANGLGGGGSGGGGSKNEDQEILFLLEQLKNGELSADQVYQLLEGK

[1] = target: T2, Cy3-labeled 4CL-MlnB COM^D (Bacillus amyloliquefaciens, UniProt Q42524 1-561, Cy3-NHS ester linked to naturally occurring lysine residues (positions not stated)); experiment: Cy3/Cy5 FRET, three channels
T2 construct: Dye-labelled form used in the three-channel FRET analysis; also called 4CL-MlnB COMD labeled with Cy3; not shown: N-terminal His-tag from pET15b vector
T2 sequence: T1 sequence

MlnC COM^A-AAL = target: T3, MlnC COM^A-AAL
T3 chain: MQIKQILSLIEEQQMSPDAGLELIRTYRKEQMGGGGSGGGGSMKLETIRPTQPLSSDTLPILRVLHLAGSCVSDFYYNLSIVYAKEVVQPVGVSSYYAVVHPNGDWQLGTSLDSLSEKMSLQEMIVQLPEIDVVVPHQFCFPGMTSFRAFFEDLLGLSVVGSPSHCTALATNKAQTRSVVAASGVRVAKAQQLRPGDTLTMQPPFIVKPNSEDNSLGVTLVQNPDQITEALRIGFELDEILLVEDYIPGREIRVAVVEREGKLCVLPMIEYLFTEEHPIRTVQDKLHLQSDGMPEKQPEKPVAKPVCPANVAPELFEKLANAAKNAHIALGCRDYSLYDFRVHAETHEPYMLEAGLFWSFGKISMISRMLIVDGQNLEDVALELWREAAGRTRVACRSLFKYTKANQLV

B1: MlnC COM^A-CHS (enzyme)
chain: MQIKQILSLIEEQQMSPDAGLELIRTYRKEQMGGGGSGGGGSGGGGSMVTVEEYRKAQRAEGPATVMAIGTATPSNCVDQSTYPDFYFRITNSEHKTDLKEKFKRMCEKSMIKKRYMHLTEEILKENPSMCEYMAPSLDARQDIVVVEVPKLGKEAAQKAIKEWGQPKSKITHLVFCTTSGVDMPGCDYQLTKLLGLRPSVKRLMMYQQGCFAGGTVLRLAKDLAENNKGARVLVVCSEITAVTFRGPNDTHLDSLVGQALFGDGAGAIIIGSDPIPGVERPLFELVSAAQTLLPDSHGAIDGHLREVGLTFHLLKDVPGLISKNIEKSLEEAFKPLGISDWNSLFWIAHPGGPAILDQVEIKLGLKPEKLKATRNVLSNYGNMSSACVLFILDEMRKASAKEGLGTTGEGLEWGVLFGFGPGLTVETVVLHSVAT
notes: Unlabelled protein as used in SEC/native PAGE and in the two-step naringenin reaction; also called chalcone synthase fused to MlnC COM acceptor domain; not shown: C-terminal His-tag from pET21c vector
binding result (4CL-MlnB COM^D): binds

B2: Cy5-labeled MlnC COM^A-CHS (enzyme)
chain: B1 chain
modifications: Cy5-NHS ester linked to naturally occurring lysine residues (positions not stated)
notes: Dye-labelled form used in the three-channel FRET analysis; also called MlnC COMA-CHS labeled with Cy5; not shown: C-terminal His-tag from pET21c vector
binding result [1]: binds

B3: MlnB COM^D-CNL (protein)
chain: KNEDQEILFLLEQLKNGELSADQVYQLLEGKGGGSMAQSISLSLPQSTTPSKGVRLKIAALLKTIGTLILLLIALPLNALIVLISLMCRPFTKKPAVATHPQNILVSGGKMTKALQLARSFHAAGHRVILIEGHKYWLSGHRFSNSVSRFYTVPAPQDDPEGYTQALLEIVKREKIDVYVPVCSPVASYYDSLAKSALSEYCEVFHFDADITKMLDDKFAFTDRARSLGLSAPKSFKITDPEQVINFDFSKETRKYILKSISYDSVRRLNLTKLPCDTPEETAAFVKSLPISPEKPWIMQEFIPGKELCTHSTVRDGELRLHCCSNSSAFQINYENVENPQIQEWVQHFVKSLRLTGQISLDFIQAEDGTAYAIECNPRTHSAITMFYNHPGVAEAYLGKTPLAAPLEPLADSKPTYWIYHEIWRLTGIRSGQQLQTWFGRLVRGTDAIYRLDDPIPFLTLHHWQITLLLLQNLQRLKGWVKIDFNIGKLVELGGD
shinorine production in Saccharomyces cerevisiae (HPLC), against free or singly fused CNL and AAL (MlnC COM^A-AAL): shinorine production increased by about 1.3 times
